# Measurements as given in US20210206842A1 (NATIONAL RESEARCH COUNCIL OF CANADA, published 2021).
# T1: peptide #2a (20 aa) (human)
# T1 construct: Custom-synthesized (Biomatik); also called pep #2a; P2a
# T1 peptide: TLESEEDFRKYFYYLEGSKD
# T2: peptide #40a (40 aa) (human)
# T2 construct: Custom-synthesized (Biomatik); also called pep #40a; P40a
# T2 peptide: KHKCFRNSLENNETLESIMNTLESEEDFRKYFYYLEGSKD
# T3: peptide #2 (30 aa) (human)
# T3 construct: Custom-synthesized (Biomatik); also called pep #2; P2
# T3 peptide: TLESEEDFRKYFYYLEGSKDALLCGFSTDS
# T4: peptide #2b (20 aa) (human)
# T4 construct: Custom-synthesized (Biomatik); also called pep #2b; P2b
# T4 peptide: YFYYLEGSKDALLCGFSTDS
# Legend:
# [1] = molecular target: T5, FC5DIE3IR recombinant protein; assay: apparent KD (Kdapp), ELISA dose curve of purified mAb on coated FC5DIE3IR; 1G5 clone (IgG1), ELISA apparent KD
# T5 construct: Made in CHO-3E7 cells; also called FC5DIE31R; FC5DIE3R
# Protocol: (§1) Screening. Hybridoma supernatants were screened by ELISA to detect specific binders. To this end, 96-well half-area plates (Costar #3690) were coated with 25 μl of FC5DIE3IR or FC5-VHH or FC5-hFc-1X0 at 5 μg/ml in PBS and incubated overnight at 4° C. Microplates were washed 3 times with PBS, blocked with PBS-BSA 1%, and 25 μl of hybridoma supernatants were added and incubated at 37° C., 5% CO₂ for 2 hours. […] After 4 washes with PBS-Tween 20 0.05%, 25 μl of a 1 mg/ml pNPP substrate solution was added and further incubated for one hour at 37° C.
# (§2) Evaluation of apparent affinity in ELISA. Purified antibodies were assessed for their binding activity by ELISA in a dose-dependent binding curve. Serial 1/3 dilutions of purified mAbs starting at 120 nM were applied onto wells and ELISA was performed as described above (screening section). The data were analyzed with GraphPad Prism software using one-site specific binding-with Hill slope non-linear regression curve fit model to determine Bₘₐₓ (maximum specific binding) and Kdₐₚₚ (concentration needed to achieve a half-maximum binding at equilibrium) for each mAb tested.
# VHH FC5 [2] = molecular target: T6, VHH FC5; assay: SPR, mAb 1G5 and FC5, 25 C
# T6 construct: put together from its FR and CDR entries; also called FC5-VHH; FC5 control
# VHH FC5 [3] = molecular target: T6, VHH FC5; assay: ELISA, hybridoma supernatant on coated purified FC5-VHH
# Protocol: as §1
# [4] = molecular target: T5, FC5DIE3IR recombinant protein; assay: ELISA on coated FC5DIE3IR, serial dilutions of purified mAb, OD 405 nm; fit One site - Specific binding with Hill slope; apparent Kd in the unit of the concentration axis (nM), the table itself prints no unit
# Protocol: as §1, §2
# [5] = molecular target: T5, FC5DIE3IR recombinant protein; assay: SPR, mAb 1G5 and FC5DIE3IR, 25 C
# [6] = molecular target: T5, FC5DIE3IR recombinant protein; assay: ELISA on coated FC5DIE3IR, serial dilutions of purified mAb; fit One site - Specific binding with Hill slope
# Protocol: as §1, §2
# human Nav1.7 polypeptide [7] = molecular target: T7, human Nav1.7 polypeptide (human, UniProt Q15858 1-1988); assay: cell ELISA, hybridoma supernatant on live CHO cells expressing human Nav1.7, duplicate 2
# T7 construct: also called hNav1.7; SCN9A
# Protocol: (§3) Cell-ELISA. Sterile 96-well plates (Costar #3595) were pre-treated with 50 μl/well of branched polyethyleneimine (PEI, Sigma Cat #408727) at 25 μg/ml in PBS for 30 min at room temperature. PEI was removed and CHO-3E7 or hNAᵥ1.7-CHO (ChanTest cat #CT4003) were seeded at 6×10⁵ cells per well in FreeStyle F17 Expression Medium (Gibco Cat #A1383501) and incubated overnight at 37° C., 5% CO₂. Microplates were blocked with Starting block (Thermofisher Cat #37538) for 30 min at room temperature, and 50 μl of hybridoma supernatants were added and incubated at 4° C. for 3 h. […] After 10 washes with PBS, 50 μl of TMB substrate solution (Pierce Cat #34021) was added and further incubated for 60 min at room temperature.
# human Nav1.7 polypeptide [8] = molecular target: T7, human Nav1.7 polypeptide; assay: cell-based or functional assay
# [9] = molecular target: T5, FC5DIE3IR recombinant protein; assay: ELISA, hybridoma supernatant on coated purified FC5DIE3IR
# Protocol: as §1
# human Nav1.7 polypeptide [10] = molecular target: T7, human Nav1.7 polypeptide; assay: cell ELISA, hybridoma supernatant on live CHO cells expressing human Nav1.7, duplicate 1
# Protocol: as §3
# human Nav1.7 polypeptide [11] = molecular target: T7, human Nav1.7 polypeptide; assay: cell-based or functional assay; remark: listed apart in the source
# peptide #2a (20 aa) = molecular target: T1, peptide #2a (20 aa); assay: ELISA on coated P2a, mAb at the dilutions 1:1000, 1:5000 and 1:10000, Abs 450nm
# Protocol: (§4) The peptides were custom-synthesized (Biomatik) and tested for antibody binding by ELISA. […] The wells were blocked with 1% BSA in TBS-T for 30 min and then incubated with 1:1000 dilution of anti-hNaᵥ1.7 mAb at room temperature (RT) for one hr.
# [12] = molecular target: T5, FC5DIE3IR recombinant protein; assay: SPR (Biacore T200), ligand 3A8 captured by anti-mouse IgG, FC5DIE3IR flowed at 1 µM, 25 °C, 1:1 binding model
# Protocol: (§5) HBS-EP running buffer used for SPR experiments. […] Test binding experiments of FC5 control and FC5DIE3IR involved flowing 1 μM concentrations of SEC-pure material over the mAb surface at a flow rate of 30 μl/min for 5 min. Surfaces could be regenerated using 10 mM glycine, pH 1.7, with a 120 sec pulse at 20 μl/min. All SPR experiments were evaluated with Biacore T200 Software v 3.0. […] Regeneration conditions were the same as above. Data were fit to a 1:1 binding model and analyzed using the Biacore T200 Software v3.0.
# VHH FC5 [13] = molecular target: T6, VHH FC5; assay: SPR (Biacore T200), ligand 3A8 captured by anti-mouse IgG, VHH FC5 flowed at 1 µM, 25 °C, 1:1 binding model; the label reads KD: without a unit, M follows from kd/ka; the fit is printed under a flat sensorgram and the filing says that 3A8 did not bind FC5
# Protocol: as §5
# [14] = molecular target: T5, FC5DIE3IR recombinant protein; assay: SPR single cycle kinetics, ligand 3A8 Fc-captured, FC5DIE3IR flowed in five rising concentrations, 1:1 binding model
# Protocol: as §5
# VHH FC5 [15] = molecular target: T6, VHH FC5; assay: SPR (Biacore T200), ligand 3A8 captured by anti-mouse IgG, VHH FC5 flowed at 1 µM, 25 °C, 1:1 binding model; the fit is printed under a flat sensorgram and the filing says that 3A8 did not bind FC5
# Protocol: as §5
# [16] = molecular target: T5, FC5DIE3IR recombinant protein; assay: ELISA dose curve of purified mAb on coated FC5DIE3IR
# Protocol: as §1, §2
# peptide #40a (40 aa) = molecular target: T2, peptide #40a (40 aa); assay: ELISA on coated peptide or FC5DIE3IR, mAb detected with HRP anti-mouse Fc, Abs 450nm
# Protocol: as §4
# peptide #2 (30 aa) = molecular target: T3, peptide #2 (30 aa); assay: as above
# Protocol: as §4
# peptide #3 (30 aa) = molecular target: T8, peptide #3 (30 aa) (human); assay: as above
# T8 construct: Custom-synthesized (Biomatik); also called pep #3; P3
# Protocol: as §4
# [17] = molecular target: T5, FC5DIE3IR recombinant protein; assay: SPR (Biacore T200), single cycle kinetics, Fc-captured mAb, FC5DIE3IR flowed (320 nM-20 nM), 1:1 model, 25 C
# Protocol: as §5
# [18] = molecular target: T5, FC5DIE3IR recombinant protein; assay: apparent KD (Kdapp), ELISA dose curve of purified mAb on coated FC5DIE3IR; 3A8 clone (IgG2a), ELISA apparent KD
# Protocol: as §1, §2
# peptide #2b (20 aa) = molecular target: T4, peptide #2b (20 aa); assay: ELISA on coated P2b, mAb at the dilutions 1:1000, 1:5000 and 1:10000, Abs 450nm
# Protocol: as §4
# peptide #40b (40 aa) = molecular target: T9, peptide #40b (40 aa) (human); assay: ELISA on coated peptide or FC5DIE3IR, mAb detected with HRP anti-mouse Fc, Abs 450nm
# T9 construct: Custom-synthesized (Biomatik); also called pep #40b; P40b
# Protocol: as §4
# VHH FC5 [19] = molecular target: T6, VHH FC5; assay: SPR, single cycle kinetics, Fc-captured mAb, FC5 flowed, 25 C
# Protocol: as §5
# T6 sequence (VHH, as listed by the source): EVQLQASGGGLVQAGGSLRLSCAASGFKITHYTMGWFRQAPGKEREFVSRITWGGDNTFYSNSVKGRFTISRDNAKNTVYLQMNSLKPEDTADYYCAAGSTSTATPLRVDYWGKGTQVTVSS
# T8 sequence (peptide, as listed by the source): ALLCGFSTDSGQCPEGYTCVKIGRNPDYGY
binder,measurement,setting,value
"mAb 1G5 (antibody, V domains shown, also called negative control) VH: QVQLQQPGAELVKPGASVKLSCKASGYTFTSYWINWVKQRPGQGLEWIGNIYPGNSNTNYNEKFKSKATLTVDKSSSTAYMQLSSLTSEDSAVYYCARRYYYDYDDAMDYWGQGTSVTVSS VL: DIVLTQSPASLAVSLGQRATISCRASESVDSYGNGFMHWYQQKPGQPPKLLIYRASNLESGIPARVSGSGSRTDFTLTINPVEADDVATYYCQQSNEDPWTFGGGTKLEIK",Kd,[1],4.8 nM
same,Kd,VHH FC5 [2],58.8 nM
same,koff,VHH FC5 [2],0.017 s⁻¹
same,kon,VHH FC5 [2],289000 M⁻¹ s⁻¹
same,ELISA signal (OD 405 nm),VHH FC5 [3],0.096 OD 405 nm
same,Kd,[4],5.04 nM
same,Kd,[5],186 nM
same,koff,[5],0.0136 s⁻¹
same,kon,[5],72900 M⁻¹ s⁻¹
same,Bmax,[6],0.635 OD405 nm
same,cell ELISA signal (OD 450 nm),human Nav1.7 polypeptide [7],0.225 OD 450 nm
same,Reduction currents (%) at 1 µM,human Nav1.7 polypeptide [8],0.77%
same,ELISA signal (OD 405 nm),[9],1.14 OD 405 nm
same,cell ELISA signal (OD 450 nm),human Nav1.7 polypeptide [10],0.172 OD 450 nm
"anti-hNav1.7 mAb 3A8 (antibody, V domains shown, also called F233-3A8) VH: QVQLQQPGAELVKPGASVKLSCKASGYTFTNYWMHWVKQRPGQGLEWIGEINPSNGRANYNEKFKSKATLTVDKSSSTAYMQLSSLTSEDSAVYYCARSPYGYYDYWGQGTTLTVSS VL: DVLMTQTPLSLPVSLGDQASISCRSSQSLLHSNGNTYFHWYLQKPGQSPKLLIYKVSNRFFGVPDRFSGSGSGTDFTLKISRVEAEDLGVYFCSQITHVPLTFGAGTKLELK","concentration response relationship (IC50), hNav1.7 currents, whole-cell patch clamp, hNav1.7-HEK293 cells",human Nav1.7 polypeptide [11],900 nM
same,binding result,peptide #2a (20 aa),binds
same,Kd,[12],17.1 nM
same,koff,[12],4.52e-05 s⁻¹
same,kon,[12],2640 M⁻¹ s⁻¹
same,ELISA signal (OD 405 nm),VHH FC5 [3],0.029 OD 405 nm
same,Kd,VHH FC5 [13],482 nM
same,Kd,[4],1.84 nM
same,Kd,[14],7.59 nM
same,koff,[14],3.15e-05 s⁻¹
same,kon,[14],4160 M⁻¹ s⁻¹
same,Bmax,[6],2.15 OD405 nm
same,koff,VHH FC5 [15],0.0138 s⁻¹
same,kon,VHH FC5 [15],28700 M⁻¹ s⁻¹
same,fold lower apparent KD than the 1G5 clone,[16],~2.5 fold
same,cell ELISA signal (OD 450 nm),human Nav1.7 polypeptide [7],0.183 OD 450 nm
same,binding result,peptide #40a (40 aa),binds
same,binding result,peptide #2 (30 aa),binds
same,binding result,peptide #3 (30 aa),no binding
same,"Concentration response relationship (IC50), hNav1.7 currents, whole-cell patch clamp, hNav1.7-HEK293 cells, resting/closed state",human Nav1.7 polypeptide [8],850 nM
same,Efficacy (degree of maximum inhibition) %,human Nav1.7 polypeptide [8],16%
same,Reduction currents (%) at 0.5 µM,human Nav1.7 polypeptide [8],3.6%
same,Reduction currents (%) at 1 µM,human Nav1.7 polypeptide [8],8.2%
same,Reduction currents (%) at 2 µM,human Nav1.7 polypeptide [8],16%
same,Reduction currents (%) at 3 µM,human Nav1.7 polypeptide [8],15.4%
same,Time constant of the block of the hNav1.7 currents (1 µM),human Nav1.7 polypeptide [8],184 s
same,Time constant of the block of the hNav1.7 currents (2 µM),human Nav1.7 polypeptide [8],105 s
same,ELISA signal (OD 405 nm),[9],0.995 OD 405 nm
same,Kd,[17],36.7 nM
same,koff,[17],0.000259 s⁻¹
same,kon,[17],7050 M⁻¹ s⁻¹
same,Kd,[18],1.9 nM
same,cell ELISA signal (OD 450 nm),human Nav1.7 polypeptide [10],0.102 OD 450 nm
"anti-hNav1.7 mAb 2G11 (antibody, V domains shown) VH: QVQLQQPGAELVKPGASVKLSCKASGYTFTTYWMHWVKQRPGQGLEWIGEINPSNGRANYNEKFKSKATLTVDKSSSTAYMQLSSLTSEDSAVYYCLRSLGYFDYWGQGTTLTVSS VL: DVVMTQSPLSLPVSLGDQASISCRSSQSLVHSNGNTYLHWYLQKAGQSPKFLIYKVSNRFSGVPDRFSGSGSGTDFTLKISRVEAEDLGVYFCSQSTHVPYTFGGGTKLEIK",binding result,peptide #2b (20 aa),no binding (tested: 1:1000 dilution)
same,binding result,peptide #2a (20 aa),no binding (tested: 1:1000 dilution)
same,ELISA signal (OD 405 nm),VHH FC5 [3],0.021 OD 405 nm
same,Kd,[4],0.847 nM
same,Bmax,[6],1.84 OD405 nm
same,cell ELISA signal (OD 450 nm),human Nav1.7 polypeptide [7],0.049 OD 450 nm
same,binding result,peptide #40a (40 aa),binds
same,binding result,peptide #40b (40 aa),no binding
same,binding result,VHH FC5 [19],no binding
same,ELISA signal (OD 405 nm),[9],0.86 OD 405 nm
same,Kd,[17],55.1 nM
same,koff,[17],0.000526 s⁻¹
same,kon,[17],9560 M⁻¹ s⁻¹
same,cell ELISA signal (OD 450 nm),human Nav1.7 polypeptide [10],0.041 OD 450 nm
